T1: Recombinant human B7-1 Fc Chimera (RnD Systems, 140-B1-100), biotinylated (human, UniProt P33681 35-242, biotinylated (ECL biotinylation module, GE Healthcare, at a quarter of the kit recommended level))
T1 construct: Bought reagent; also called biotinylated B7-1; Fc part of the bought chimera not given
T1 sequence (looked up): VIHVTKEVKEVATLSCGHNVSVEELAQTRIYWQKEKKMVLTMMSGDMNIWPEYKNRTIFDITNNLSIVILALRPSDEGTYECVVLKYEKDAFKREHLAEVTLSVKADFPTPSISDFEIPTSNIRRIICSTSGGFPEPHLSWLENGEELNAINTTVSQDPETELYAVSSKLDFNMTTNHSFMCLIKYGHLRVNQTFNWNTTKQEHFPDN


Experiments:
human TNFα = molecular target: T2, human TNFα (human, UniProt P01375 77-233); experiment: assay not stated (description of the dAb in Example 11)
T2 construct: also called TNF ligand; TNFα (Peprotech)

[1] = molecular target: T1, Recombinant human B7-1 Fc Chimera (RnD …); experiment: bridging ELISA: coated VEGFR2 Fc, titrated control, detection with biotinylated B7-1 Fc and ExtrAvidin peroxidase

T2 sequence (P01375 77-233 limits assumed): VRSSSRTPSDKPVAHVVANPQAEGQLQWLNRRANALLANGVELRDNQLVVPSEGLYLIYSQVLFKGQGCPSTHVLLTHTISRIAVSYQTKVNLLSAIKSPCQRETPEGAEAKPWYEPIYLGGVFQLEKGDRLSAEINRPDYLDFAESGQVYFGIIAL

| Binder | Kd (human TNFα) | binding result [1] |
| --- | --- | --- |
| PEP1-5-19 (anti-TNFα dAb) (other, Vk domain antibody (dAb), monomer; also called Anti-TNFα Vk dAb (PEP1-5-19)) VL: DIQMTQSPSSLSASVGDRVTITCRASQSIDSYLHWYQQKPGKAPKLLIYSASELQSGVPSRFSGSGSGTDFTLTISSLQPEDFATYYCQQVVWRPFTFGQGTKVEIKR | ~8 nM |  |
| BPC1801 (bispecific IGF1R-VEGFR2 antigen binding construct) (bispecific antibody, human IgG1, kappa, Negative control of the VEGFR2/B7-1 bridging ELISA) heavy: not shown light: DIVMTQSPLSLPVTPGEPASISCRSSQSIVQSNGDTYLEWYLQKPGQSPQLLIYRVSNRFSGVPDRFSGSGSGTDFTLKISRVEAEDVGVYYCFQGSHVPYTFGQGTKLEIKRTVAAPSVFIFPPSDEQLKSGTASVVCLLNNFYPREAKVQWKVDNALQSGNSQESVTEQDSKDSTYSLSSTLTLSKADYEKHKVYACEVTHQGLSSPVTKSFNRGEC |  | no binding |

From patent US20120076787A1 (published 2012)
